Results as given in patent publication US20030070184A1, “LIGANDS FOR DISCOIDIN DOMAIN RECEPTOR TYROSINE KINASES AND COMPLEXES THEREOF” (priority 1999, published 2003).

Tested on: DDR receptors
Experiment: Effect of other agents on DDR activity / collagen-induced DDR tyrosine phosphorylation
Format: cell-based
Settings: collagen-associated molecules

B1: decorin: collagen-associated molecule (protein, UniProt P07585 31-359, looked up)
Decorin: DEASGIGPEVPDDRDFEPSLGPVCPFRCQCHLRVVQCSDLGLDKVPKDLPPDTTLLDLQNNKITEIKDGDFKNLKNLHALILVNNKISKVSPGAFTPLVKLERLYLSKNQLKELPEKMPKTLQELRAHENEITKVRKVTFNGLNQMIVIELGTNPLKSSGIENGAFQGMKKLSYIRIADTNITSIPQGLPPSLTELHLDGNKISRVDAASLKGLNNLAKLGLSFNSISAVDNGSLANTPHLRELHLDNNKLTRVPGGLAEHKYIQVVYLHNNNISVVGSSDFCPPGHNTKKASYSGVSLFSNPVQYWEIQPSTFRCVYVRSAIQLGNYK
effect on DDR activity: no effect
